# According to US9926369B2, “Methods for treating hepatocellular cancer by administering an anti-Ang-2 antibody” (Regeneron Pharmaceuticals, Inc., priority 2009, dated 2018):
# Tests used:
# [1] = test system: advanced solid tumor malignancies; assay: Ascending, multiple-dose clinical trial of intravenously administered mAb1 in patients with advanced cancer; type: in vivo
# Experimental: This study was an open-label, ascending, multiple-dose study of mAb1 administered as an intravenous (IV) infusion (30 minutes) at doses of 1, 3, 6, 12 or 20 mg/kg once every 2 weeks. The study was conducted in patients with advanced solid tumor malignancies who have failed conventional therapy. The purpose of the study was to explore the safety, recommended dose (RD), pharmacokinetics (PK), pharmacodynamics (PD) and anti-tumor activity of mAb1 (also known as “H1H685P”).
# Patients were screened to determine eligibility within 28 days prior to the first dose administration. Three patients were assigned to each of the five sequential cohorts (1, 3, 6, 12 or 20 mg/kg). Patients received mAb1 as a 30 minute IV infusion on Days 1 and 15 of each 4-week cycle (28 days). The dose of mAb1 was escalated until the recommended dose was determined, based on safety, tolerability, PK, PD testing and/or maximum tolerated dose (MTD). The MTD is defined as the highest dose at which less than 33% of patients experience dose-limiting toxicity (DLT) during the first cycle of therapy.
# Six dose levels were planned for studying dose escalation. Starting at dose 1, a minimum of 3 patients was entered at each dose level. […] If no further cycle 1 DLT was observed, dose escalation proceeded to the next dose level. If two or more patients experienced a cycle 1 DLT, dose escalation was stopped and the previous lower dose level was expanded to 6 patients. Once the RD was determined, up to 10 additional patients were enrolled to evaluate safety and other biological/clinical effects. A separate cohort was planned for patients with hepatocellular carcinoma (HCC) where up to 10 patients were enrolled based on the eligibility criteria (listed below).
# A DLT is defined by any of the following treatment-related events occurring during the first cycle (28 days) of study treatment: (1) Hematologic toxicity as evidenced by (a) Grade 3 or 4 neutropenia complicated by fever 38.5° C. or infection; (b) Grade 4 neutropenia of at least 7 days duration; (c) Grade 3 thrombocytopenia complicated by hemorrhage; or (d) Grade 4 thrombocytopenia; and/or (2) Non-hematologic toxicity as evidenced by (a) any Grade 4 non-hematologic toxicity; or (b) Grade 3 non-hematologic toxicities except fatigue, anorexia, nausea, vomiting or diarrhea that can be controlled by medication. Grade 3 laboratory changes that reflected tumor burden were not considered as DLT.
# Safety was assessed throughout the study by monitoring Adverse Events and Serious Adverse Events.
# For tumor assessment, a CT or MRI was performed at the screening visit (within 28 days prior to infusion) and during every even-numbered cycle (eg cycles 2, 4, 6, 8) between days 15 and 28 and when disease progression was suspected. Tumor assessment was performed according to Response Evaluation Criteria in Solid Tumors version 1.1 (RECIST version 1.1). RECIST criteria are developed to facilitate objective assessment of change in tumor burden such as tumor shrinkage and time to development of disease progression. RECIST guidelines are posted on the worldwide web at http://ctep(dot)cancer(dot)gov(slash)protocoldevelopment(slash)docs(slash)recist_guideline(dot)pdf. Tumor marker assessments were also collected, when available.
# Blood samples were collected for RNA, serum cytokine testing, molecular profiling, anti-drug antibody (ADA) and serum mAb1 levels at screening and post-infusion on days 1, 2, 3, 8, 15 and 22 of cycle 1, and on day 1 of subsequent cycles. Tumor biopsies were obtained for immunohistochemistry studies for Ang-2. Results were scored as positive for Ang-2 in association with expression of endothelial cell CD31.
# [2] = molecular target: T1, hAng-1 WT binding to Tie-2 (Homo sapiens, UniProt Q15389); assay: ELISA blocking of full-length hAng-1 WT binding to hTie-2-mFc; type: biochemical; settings: 0.6 nM hAng-1-His
# T1 construct: Full-length human Ang-2 or Ang-1 protein conjugated to 6× histidine tag (R&D Systems, Minneapolis, Minn.); purchased R&D Systems
# T1 sequence (Q15389 20-498 limits assumed): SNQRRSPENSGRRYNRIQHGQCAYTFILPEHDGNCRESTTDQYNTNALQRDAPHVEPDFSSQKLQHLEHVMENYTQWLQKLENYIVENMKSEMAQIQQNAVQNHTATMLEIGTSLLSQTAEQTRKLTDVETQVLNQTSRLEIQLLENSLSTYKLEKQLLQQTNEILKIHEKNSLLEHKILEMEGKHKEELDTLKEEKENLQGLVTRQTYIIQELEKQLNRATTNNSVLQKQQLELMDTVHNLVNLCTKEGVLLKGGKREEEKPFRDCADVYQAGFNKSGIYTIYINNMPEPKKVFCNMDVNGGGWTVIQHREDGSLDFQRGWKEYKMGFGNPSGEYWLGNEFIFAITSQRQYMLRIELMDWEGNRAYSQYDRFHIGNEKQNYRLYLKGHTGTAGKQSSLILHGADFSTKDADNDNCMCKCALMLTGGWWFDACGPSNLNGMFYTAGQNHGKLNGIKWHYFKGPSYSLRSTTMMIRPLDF
# Experimental: The ELISA experiments shown in this Example were conducted in a similar manner to the experiments of Example 5. Briefly, hTie-2-mFc (a chimeric construct consisting of human Tie-2 conjugated to mouse IgG; SEQ ID NO:525) was coated onto 96-well plates at a concentration of 2 μg/ml and incubated overnight followed by washing four times in wash buffer (PBS with 0.05% Tween-20). The plate was then blocked with PBS (Irvine Scientific, Santa Ana, Calif.) containing 0.5% BSA (Sigma-Aldrich Corp., St. Louis, Mo.) for one hour at room temperature. In a separate plate, purified anti-Ang-2 antibodies and control constructs, at a starting concentration of 300 nM, were serially diluted by a factor of three across the plate. Full-length human Ang-2 or Ang-1 protein conjugated to 6× histidine tag (R&D Systems, Minneapolis, Minn.) were added to a final concentration of 0.6 nM and incubated for one hour at room temperature. The antibody/antigen mixture was then added to the plate containing hTie-2-mFc and incubated for one hour at room temperature. Detection of Ang-2-His or Ang-1-His bound to hTie-2-mFc protein was determined with Horse-Radish Peroxidase (HRP) conjugated to a-Penta-His antibody (Qiagen, Valencia, Calif.) and developed by standard colorimetric response using tetramethylbenzidine (TMB) substrate (BD Biosciences, San Jose, Calif.). Absorbance was read at OD450 for 0.1 sec. […]
substance,measurement,setting,value
"H1H685P: human anti-Ang-2 antibody, HCVR/LCVR SEQ ID NOs 18/20; also referred to as mAb1 [Antibody H1H685P]",Positive ADA detected,[1]; 3 mg/kg,1 patient
same,"Confirmed sustained patient response (PR), duration",[1]; 1 patient with adrenocortical cancer treated at 1 mg/kg,16 wks
same,"Stable disease (SD), patients evaluable for efficacy",[1]; 17 of 32 patients,53%
same,Total circulating serum Ang2 levels following treatment,[1]; all cohorts,saturated
same,Maximum tolerated dose (MTD),"[1]; human, in vivo, iv",not reached
same,"Stable disease (SD), duration",[1]; one patient with thyroid cancer,46 weeks
same,Treatment-related adverse events (G½): abdominal distension,[1]; patients,11%
same,Treatment-related adverse events (G½): decreased appetite,[1]; patients,11%
same,Treatment-related adverse events (G½): diarrhea,[1]; patients,14%
same,Treatment-related adverse events (G½): fatigue,[1]; patients,19%
same,Treatment-related adverse events (G½): peripheral edema,[1]; patients,17%
same,≥Grade 3 TRAEs,[1]; patients,no ≥Grade 3 TRAEs
same,"Stable disease (SD), duration range",[1]; patients evaluable for efficacy,3.3-46.8 weeks
same,Tolerability,[1]; patients with advanced cancer,generally well tolerated
same,Dose-limiting toxicities (DLTs),"[1]; patients, 1, 3, 6, 12 and 20 mg/kg IV every 2 weeks",No DLTs
same,Pharmacokinetics (PK) across all dose levels,"[1]; patients, IV",linear and dose-proportional
same,IC50,[2],> 0.3 µM
